The substances below were run against TNF receptor-associated factor 2 (TRAF2) (human (endogenous in HEK293)) (UniProt Q12933).
Sequence of UniProt Q12933 (Q12933 whole entry): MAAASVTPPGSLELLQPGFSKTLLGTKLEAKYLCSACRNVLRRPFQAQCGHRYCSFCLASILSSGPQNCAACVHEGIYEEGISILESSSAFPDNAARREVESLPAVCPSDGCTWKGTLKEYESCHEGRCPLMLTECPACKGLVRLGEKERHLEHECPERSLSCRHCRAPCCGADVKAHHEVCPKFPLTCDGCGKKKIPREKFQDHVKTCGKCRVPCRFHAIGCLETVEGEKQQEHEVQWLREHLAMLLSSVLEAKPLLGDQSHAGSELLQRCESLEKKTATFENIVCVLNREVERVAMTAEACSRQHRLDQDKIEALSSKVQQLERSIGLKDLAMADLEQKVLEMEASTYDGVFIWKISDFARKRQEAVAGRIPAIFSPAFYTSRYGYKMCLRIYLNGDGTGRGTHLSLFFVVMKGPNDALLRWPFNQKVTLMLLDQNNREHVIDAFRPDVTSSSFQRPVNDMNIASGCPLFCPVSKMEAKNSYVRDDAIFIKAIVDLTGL

Substance | NF-κB luciferase reporter activity in transiently transfected HEK293 reporter cells, decrease compared to full-length GRA15II-51–550 [%]
GRA15II-51-550 with the deletion SQQE430-433, fused to GFP (from UniProt A0A125YGQ9 51-550) (domain or fragment) | 60
GRA15II-51-550 with the deletion AAEE160-163, fused to GFP (from UniProt A0A125YGQ9 51-550) (domain or fragment) | 60
GRA15II-51-550 with the deletions AAEE160-163/SQQE430-433, fused to GFP (from UniProt A0A125YGQ9 51-550) (domain or fragment) | 75
